How the values were obtained:
[1] = In vitro gastric acid stability, 167 mM HCl, 37° C.; assay type: physicochemical; conditions: 167 mM HCl (pH 1), 3 hours
Description: Native CT and CT-conjugates were incubated at 4 μM in 167 mM HCl at 37° C. in 50 μL aliquots. Aliquots were removed at specified time points and residual activity was measured at 25° C. in 0.1 M sodium phosphate buffer (pH 8.0) with Suc-AAPF-pNA as substrate (288 μM). Each time point was measured in duplicate and residual activity was calculated as the ratio of activity remaining from time zero.

[2] = Stability study: irreversible inactivation at 40° C., pH 7-9, residual activity; assay type: physicochemical; conditions: for half-life t1/2: 40 μM enzyme
Description: Native CT and the prepared conjugates (1.5 to 2.0 mL of 40.0 μM) were incubated in 100 mM sodium phosphate buffer at different pH's at 40° C. Aliquots (20 μL) were removed and added into sodium phosphate buffer (180 μL, 100 mM, at 0° C.). The residual activity was calculated as a ratio of initial rates of hydrolysis reaction at given incubation time over the initial activity, which monitored spectrophotometrically as described above. Half-lives for enzyme longevity were estimated by non-linear curve fitting (equation for single exponential decay) using Enzfitter.
CT inactivation can occur through unfolding and/or autolysis. The polymer component of the PBPE conjugates may stabilize the enzyme by increasing the energy needed to unfold the protein and also by inhibiting autolysis directly. Since the autolysis reaction of proteases is favored when the enzyme concentration is high, (Yang, Z.; Domach, M.; Auger, R.; Yang, F. X.; Russell, A. J. Enzyme Microb. Technol. 1996, 18, 82-89) stability at relatively high enzyme concentration (40 μM) was investigated. At 40° C. the residual activity of the enzyme was measured as a function of pH and shown in FIG. 8, and the first order rate constant for deactivation and half-life were calculated (Table 5).

[3] = Stability in artificial gastric acid solution, 167 mM HCl, 37° C. (chymotrypsin-pQA); assay type: physicochemical; conditions: 167 mM HCl (pH 1)
Description: Native CT and conjugates (1.5 to 2.0 mL, 4.0 μM) were incubated in 100 mM sodium phosphate buffer (pH 7.0) at 50 or 60° C., and an artificial gastric acid solution (167 mM HCl aq. pH 1.5) at 37° C. Aliquots (50 μL) were removed and kept at 0° C. before measuring residual activity. The residual activity was calculated as a ratio of initial rates of hydrolysis reaction at given incubation time over the initial activity for each specific sample.

[4] = Stability at 50 or 60° C. (chymotrypsin-pQA); assay type: physicochemical; conditions: 0.1 M sodium phosphate buffer pH 8.0
Description: […] Aliquots (50 μL) were removed and kept at 0° C. before measuring residual activity. The residual activity was calculated as a ratio of initial rates of hydrolysis reaction at given incubation time over the initial activity for each specific sample.

[5] = Enzyme stability at 25° C. or 40° C., first order inactivation; assay type: physicochemical; conditions: 1 mg enzyme/mL, pH 8.0
Description: Native CT and CT conjugates (1 mg enzyme/mL) were dissolved in 0.1 M sodium phosphate buffer (pH 8.0) and incubated in a water bath at either 25° C. or 40° C. At various time points, aliquots were removed and diluted to 0.1 mg enzyme/mL using 0.1 M phosphate buffer (pH 8.0). Residual activity was calculated as the percentage of activity remaining relative to the activity at time zero. Substrate (Suc-AAPF-pNA) concentration was kept constant at 288 μM for each sample and time points.

[6] = target: T1, Bowman-Birk trypsin-chymotrypsin inhibitor from glycine max (GM) (Glycine max, UniProt P01055); test: Inhibitor binding study with Bowman-Birk inhibitor from glycine max; assay type: biochemical, glycine max (soybean); conditions: for Apparent Vmax / KM/Vmax: pH 8.0
T1 construct: purchased Sigma Aldrich; bovine pancreas for chymotrypsin
Description: FIGS. 24A and B show (A) Substrate/initial velocity plots and (B) secondary plots to determine inhibitor constant for native chymotrypsin with GM in 0.1 M sodium phosphate buffer (pH 8) at 25° C. […]
FIGS. 25A and B show (A) Substrate/initial velocity plots and (B) secondary plots to determine inhibitor constant for chyomtrypsin-pQA200 with GM in 0.1 M sodium phosphate buffer (pH 8) at 25° C. […]
Enzyme inhibition was assayed by measuring the hydrolytic activities of samples which contained a fixed concentration of protease and varying amounts of inhibitor, including a blank with no inhibitor. Inhibitors and peptide substrate were simultaneously added to the native and conjugate solutions immediately before measuring initial rates. The initial rate of hydrolysis of the peptide substrate was monitored by recording the increase in absorption at 412 nm. To determine dissociation constant of the enzyme-inhibitor complexes (Ki), Vmax app and KM app were determined by non-linear curve fitting (equation for Michaelis-Menten parameters) of plots of initial rate versus substrate concentration using the Enzfitter software. The dissociation constants were calculated from secondary plot of KM app/Vmax app versus initial inhibitor concentration.

[7] = target: T2, pepsin (Sus scrofa, UniProt P00791); test: Stability to pepsin degradation; assay type: in vitro ADME, porcine; conditions: 167 mM HCl, 37° C.
T2 construct: purchased Sigma Aldrich; host or cells: porcine stomach mucosa
T2 sequence (P00791 60-385): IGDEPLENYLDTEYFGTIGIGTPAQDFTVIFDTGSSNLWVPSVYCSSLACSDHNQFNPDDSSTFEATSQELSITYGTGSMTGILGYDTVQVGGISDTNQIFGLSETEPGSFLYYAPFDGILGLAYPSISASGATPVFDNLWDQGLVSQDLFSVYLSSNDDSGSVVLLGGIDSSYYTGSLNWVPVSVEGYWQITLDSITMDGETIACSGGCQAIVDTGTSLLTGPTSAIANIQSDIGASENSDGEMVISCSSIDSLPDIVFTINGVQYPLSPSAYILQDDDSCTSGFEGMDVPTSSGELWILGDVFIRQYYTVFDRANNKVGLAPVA
Description: Native CT and CT-conjugates (4 μM) were incubated in 167 mM HCl with 16 nM pepsin at 37° C. in 50 μL aliquots. Samples were retrieved at specified time points and residual activity was measured in 0.1 M sodium phosphate buffer (pH 8.0) at 25° C. with Suc-AAPF-pNA as substrate (288 μM). Each time point was measured in duplicate and residual activity was calculated as the ratio of activity remaining from time zero. As a control, pepsin (16 nM) bioactivity towards Suc-AAPF-pNA was measured at pH 8.0 and no product formation was observed.

[8] = Thermal stability at 37° C., pH 8.0; assay type: physicochemical; conditions: 8 hours incubation at 40 μM, 0.1 M sodium phosphate pH 8.0, 37° C.
Description: Native CT and CT-conjugates (40 μM) were dissolved in 0.1 M sodium phosphate buffer (pH 8.0) and incubated in a water bath in 50 μL aliquots at 37° C. At specified time points, aliquots were removed and diluted to 4 μM using 0.1 M sodium phosphate buffer (pH 8.0). Residual activity, measured in 0.1 M sodium phosphate buffer (pH 8.0) at 25° C., was calculated as the ratio of activity remaining relative to the activity at time zero. Substrate (Suc-AAPF-pNA) concentration was kept constant at 288 μM for each sample and time point. Native CT and conjugate activities were measured in duplicate at each time point.

## α-Chymotrypsin (CT) from bovine pancreas (type II) [Native CT]
[1]
  activity maintained: complete activity loss
[2]; pH 7.0, 40° C.
  half-life t1/2: 7.15 ± 0.91 h
[2]; pH 7.0, 40° C., listed as native enzyme
  half-life t1/2: 7.2 h
[2]; pH 7, 40° C., after 6 h
  initial activity retained: 50%
[2]; pH 8.0, 40° C.
  half-life t1/2: 1.95 ± 0.25 h
[2]; pH 9.0, 40° C.
  half-life t1/2: 1.53 ± 0.20 h
[2]; pH 9, 40° C., after 6 h
  biocatalytic activity lost: 70-80%
[3]
  time after which all activity was lost: 3 h
[4]; 50° C.
  time after which all activity was lost: 2 h
[4]; 60° C.
  time in which all activity was lost: 30 min
[5]; 25° C.
  kinact: 0.13 ± 1.2 × 10^−2 days−1
  t1/2: 5.43 ± 0.51 days
[5]; 40° C.
  kinact: 6.61 ± 0.47 day⁻¹
  t1/2: 0.10 ± 7.5 × 10^−3 days
[6]; GM
  GM Ki, fold higher than chymotrypsin-pQA198: ~4 fold
[6]; GM [I]0 0 mM, 25° C.
  Apparent Vmax: 1.10 mM/s
[6]; GM [I]0 0 µM, 25° C.
  KM/Vmax: 71.8 s⁻¹
[6]; GM [I]0 0.049 µM, 25° C.
  KM/Vmax: 90.4 s⁻¹
[6]; GM [I]0 0.098 µM, 25° C.
  KM/Vmax: 102.2 s⁻¹
[6]; GM [I]0 0.147 µM, 25° C.
  KM/Vmax: 150.1 s⁻¹
[6]; GM [I]0 0.196 µM, 25° C.
  KM/Vmax: 159.9 s⁻¹
[6]; GM [I]0 0.294 µM, 25° C.
  KM/Vmax: 188.0 s⁻¹
[6]; GM [I]0 0.049 mM, 25° C.
  Apparent Vmax: 1.05 mM/s
[6]; GM [I]0 0.098 mM, 25° C.
  Apparent Vmax: 1.18 mM/s
[6]; GM [I]0 0.147 mM, 25° C.
  Apparent Vmax: 1.21 mM/s
[6]; GM [I]0 0.196 mM, 25° C.
  Apparent Vmax: 1.23 mM/s
[6]; GM [I]0 0.294 mM, 25° C.
  Apparent Vmax: 1.14 mM/s
[6]; inhibitor Glycine Max, 25° C.
  Ki: 172 nM
[7]
  time after which all activity was lost: 75 min
[8]
  activity lost: lost half of its activity
